{"source": "paper PMC8307315", "assay_in_all_cases": "SPR; Biacore 2000, CM4 chip; PSA amine-coupled, antibody or conjugate bound to it; 10 min into the dissociation phase 40 nM FcRn in 10 mM maleic acid (pH 6.0) flown over for 3 min; number of FcRn bound per antibody from the RUs at the end of the FcRn injection", "key": {"[1]": {"target": "hu5A10-DTPA, 6:1 chelator-to-antibody molar ratio"}, "[2]": {"target": "hu5A10-DTPA, 3:1 chelator-to-antibody molar ratio"}, "[3]": {"target": "humanized 5A10 (hu5A10), unconjugated"}, "[4]": {"target": "hu5A10-DOTA, 12:1 chelator-to-antibody molar ratio"}, "[5]": {"target": "hu5A10-DTPA, 12:1 chelator-to-antibody molar ratio"}, "[6]": {"target": "hu5A10-DOTA, 6:1 chelator-to-antibody molar ratio"}, "[7]": {"target": "hu5A10-DOTA, 3:1 chelator-to-antibody molar ratio"}}, "data": [{"substance": "neonatal fc-receptor (FcRn) (from UniProt P55899 24-297)", "values": [{"measurement": "FcRn bound per antibody (FcRn per antibody)", "setting": "[1]", "result": 1.9}, {"measurement": "FcRn bound per antibody (FcRn per antibody)", "setting": "[2]", "result": 1.9}, {"measurement": "FcRn bound per antibody (FcRn per antibody)", "setting": "[3]", "result": 1.8}, {"measurement": "FcRn bound per antibody (FcRn per antibody)", "setting": "[4]", "result": 0.1}, {"measurement": "FcRn bound per antibody (FcRn per antibody)", "setting": "[5]", "result": 1.7}, {"measurement": "FcRn bound per antibody (FcRn per antibody)", "setting": "[6]", "result": 0.5}, {"measurement": "FcRn bound per antibody (FcRn per antibody)", "setting": "[7]", "result": 0.8}]}]}
